Seven molecules from publication PMC8251712 can be followed below.

Changes are numbered by the printed parent chain.

Series [1] deals with T1, Myb10-D (Pcold-Myb10-D fusion) (Triticum aestivum, UniProt C0SPG5 1-265). The experiment in a line: EMSA.
Series [2] concerns the target T1, Myb10-D (Pcold-Myb10-D fusion). The experiment in a line: EMSA. This is another data set of the same source.
For series [3] the target is unchanged. Put plainly: competition.
The target is the same in series [4]. Put plainly: competition. This is another data set of the same source.
Series [5] has the same target. The experiment in a line: competition. This is another data set of the same source.

B1: SDR 396500 WT (dsDNA)
DNA 1: CCGGATTGAGGGCCGGAGTAGCTGCAGGTGTGATCTCCCG
DNA 2: CGGGAGATCACACCTGCAGCTACTCCGGCCCTCAATCCGG
As for B1, the binding result in series [1] is “no binding”.

B2: AAO 343200 WT (dsDNA)
DNA 1: CACGAAGATTTCCCAGCTATCATCAATAAGACCAGGTCGC
DNA 2: GCGACCTGGTCTTATTGATGATAGCTGGGAAATCTTCGTG
Regarding B2, the binding result in series [1] was “no binding”.

B3: ABA3 269200 WT (dsDNA)
DNA 1: ACATCGTCGTTCATCACCAGCTAGCGAAGCAAACAAGGAG
DNA 2: CTCCTTGTTTGCTTCGCTAGCTGGTGATGAACGACGATGT
In the case of B3, the binding result in series [2] was “binds”.

B4: ABA3 269200 mu (dsDNA)
DNA 1: B3 DNA 1 with C18G, A19G, C21G, T22G, A23G
DNA 2: B3 DNA 2 with T18C, A19C, G20C, T22C, G23C
Consider B4, for which the binding result in series [3] is reported as “no binding”.

B5: NCED probe2988 (SMRE) (dsDNA)
DNA 1: ACGTAATCTTTGAACTTTTCACCAAATAAACATTTCCACC
DNA 2: GGTGGAAATGTTTATTTGGTGAAAAGTTCAAAGATTACGT
With B5, the binding result in series [2] is listed as “binds”.

B6: NCED freeprobe2988 (WT competitor) (dsDNA)
DNA 1: B5 DNA 1
DNA 2: B5 DNA 2
Regarding B6, the binding result in series [4] is reported as “binds”.

B7: NCED freeprobe2988mu (mutant competitor) (dsDNA)
DNA 1: ACGTAATCTTTGAACTTTTCGGGGGGAAACATTTCCACC
DNA 2: GGTGGAAATGTTTCCCCCCGAAAAGTTCAAAGATTACGT
Take B7: in series [5], the binding result is reported as “no binding”.
